Assay results taken from publication PMC9061753, “Mre11-Rad50 oligomerization promotes DNA double-strand break repair” (Nature Communications, 2022).
Positions count from the first letter of the chain named. Names and notes keep the numbering of the source.

Experiments:
[1] = biological target: Mre11-Rad50-Xrs2 (MRX) (S. cerevisiae, UniProt P32829;P12753;P33301 1-692;1-1312;1-854); test: mass photometry; 25 mM KCl; Oligo EMSA: 25 mM Tris acetate pH 7.5, 1 mM DTT, 0.25 mg/ml BSA, 5 mM Mg acetate, 1 mM ATPgS, 30 mM NaCl, 30 C 15 min, 100 nM bp DNA; plasmid EMSA: 80 mM KCl, plus 1 mM MnCl2, 30 C 1 h; mass photometry 25 mM KCl; conditions: protein: recombinant; tags: His-Mre11; Rad50 untagged; Xrs2-FLAG; chain copies: 2;2;1; blunt
[2] = biological target: T1, MRho (S. cerevisiae, UniProt P32829;P12753 1-692;1-1312, N121A;D124N;Rad50:); test: as above; conditions: protein: recombinant, tags: Mre11-6xHis, Rad50 untagged, chain copies: 2;2
[3] = biological target: T2, Mre11-Rad50 (MRwt) (S. cerevisiae, UniProt P32829;P12753 1-692;1-1312); test: mass photometry; 25 mM KCl; two dimers per DNA detected; Oligo EMSA: 25 mM Tris acetate pH 7.5, 1 mM DTT, 0.25 mg/ml BSA, 5 mM Mg acetate, 1 mM ATPgS, 30 mM NaCl, 30 C 15 min, 100 nM bp DNA; plasmid EMSA: 80 mM KCl, plus 1 mM MnCl2, 30 C 1 h; mass photometry 25 mM KCl; conditions: protein: recombinant; tags: Mre11-6xHis; Rad50 untagged; chain copies: 2;2; blunt
[4] = biological target: T2, Mre11-Rad50 (MRwt); test: EMSA; ATPgS, 5 mM Mg2+, 30 mM NaCl; mean of the 3 visible of 4 replicates (14.03, 13.92, 12.72); apparent; Oligo EMSA: 25 mM Tris acetate pH 7.5, 1 mM DTT, 0.25 mg/ml BSA, 5 mM Mg acetate, 1 mM ATPgS, 30 mM NaCl, 30 C 15 min, 100 nM bp DNA; plasmid EMSA: 80 mM KCl, plus 1 mM MnCl2, 30 C 1 h; mass photometry 25 mM KCl; conditions: protein: recombinant; tags: Mre11-6xHis; Rad50 untagged; chain copies: 2;2; label: 3'-32P on strand 1 (terminal transferase); blunt before 3' labeling
[5] = biological target: T2, Mre11-Rad50 (MRwt); test: EMSA; ATPgS, 5 mM Mg2+, 30 mM NaCl; mean of the 3 visible of 4 replicates (20.5, 22.96, 22.55); apparent; Oligo EMSA: 25 mM Tris acetate pH 7.5, 1 mM DTT, 0.25 mg/ml BSA, 5 mM Mg acetate, 1 mM ATPgS, 30 mM NaCl, 30 C 15 min, 100 nM bp DNA; plasmid EMSA: 80 mM KCl, plus 1 mM MnCl2, 30 C 1 h; mass photometry 25 mM KCl; conditions: protein: recombinant; tags: Mre11-6xHis; Rad50 untagged; chain copies: 2;2; label: 3'-32P on strand 1 (terminal transferase); blunt before 3' labeling
[6] = biological target: T2, Mre11-Rad50 (MRwt); test: mass photometry; 25 mM KCl; Oligo EMSA: 25 mM Tris acetate pH 7.5, 1 mM DTT, 0.25 mg/ml BSA, 5 mM Mg acetate, 1 mM ATPgS, 30 mM NaCl, 30 C 15 min, 100 nM bp DNA; plasmid EMSA: 80 mM KCl, plus 1 mM MnCl2, 30 C 1 h; mass photometry 25 mM KCl; conditions: protein: recombinant; tags: Mre11-6xHis; Rad50 untagged; chain copies: 2;2; bottom as printed is a circular permutation of the complement of top (possible printing error); stated 73 bp
[7] = biological target: T1, MRho; test: mass photometry; 25 mM KCl; two dimers per DNA detected; Oligo EMSA: 25 mM Tris acetate pH 7.5, 1 mM DTT, 0.25 mg/ml BSA, 5 mM Mg acetate, 1 mM ATPgS, 30 mM NaCl, 30 C 15 min, 100 nM bp DNA; plasmid EMSA: 80 mM KCl, plus 1 mM MnCl2, 30 C 1 h; mass photometry 25 mM KCl; conditions: protein: recombinant; tags: Mre11-6xHis; Rad50 untagged; chain copies: 2;2; bottom as printed is a circular permutation of the complement of top (possible printing error); stated 73 bp
[8] = biological target: T2, Mre11-Rad50 (MRwt); test: EMSA; ATPgS, 5 mM Mg2+, 30 mM NaCl; mean of the 2 visible of 3 replicates (7.787, 6.135); apparent; Oligo EMSA: 25 mM Tris acetate pH 7.5, 1 mM DTT, 0.25 mg/ml BSA, 5 mM Mg acetate, 1 mM ATPgS, 30 mM NaCl, 30 C 15 min, 100 nM bp DNA; plasmid EMSA: 80 mM KCl, plus 1 mM MnCl2, 30 C 1 h; mass photometry 25 mM KCl; conditions: protein: recombinant; tags: Mre11-6xHis; Rad50 untagged; chain copies: 2;2; label: 3'-32P; blunt before 3' labeling
[9] = biological target: the molecule itself; test: negative staining TEM; purified complexes without DNA; 25 mM Tris acetate pH 7.5, 1 mM DTT, 120 mM KCl; 4 °C, or 30 °C for 30 min with 5 mM Mg2+, 1 mM Mn2+, 1 mM ATPγS; oligomers stable at 150 mM KCl or NaCl; step: M2R2 to (M2R2)n
[10] = biological target: the molecule itself; test: negative staining TEM; proteins on linear or circular plasmid DNA, 30 °C 30 min, Mg2+, Mn2+, ATPγS (or ATP), 30-50 mM KCl; 50-100 nM MR; oligomerization on DNA
[11] = biological target: MRlo (S. cerevisiae, UniProt P32829;P12753 1-692;1-1312, L116A;I119A;T127A;L128A;Rad50:); test: mass photometry; 25 mM KCl, 5 nM protein, 2.5 nM DNA; Oligo EMSA: 25 mM Tris acetate pH 7.5, 1 mM DTT, 0.25 mg/ml BSA, 5 mM Mg acetate, 1 mM ATPgS, 30 mM NaCl, 30 C 15 min, 100 nM bp DNA; plasmid EMSA: 80 mM KCl, plus 1 mM MnCl2, 30 C 1 h; mass photometry 25 mM KCl; conditions: protein: recombinant; tags: Mre11-6xHis; Rad50 untagged; chain copies: 2;2; 1-nt 5' overhangs as printed
Chain of MRlo (P32829 whole entry, stated change not applied, one chain of several): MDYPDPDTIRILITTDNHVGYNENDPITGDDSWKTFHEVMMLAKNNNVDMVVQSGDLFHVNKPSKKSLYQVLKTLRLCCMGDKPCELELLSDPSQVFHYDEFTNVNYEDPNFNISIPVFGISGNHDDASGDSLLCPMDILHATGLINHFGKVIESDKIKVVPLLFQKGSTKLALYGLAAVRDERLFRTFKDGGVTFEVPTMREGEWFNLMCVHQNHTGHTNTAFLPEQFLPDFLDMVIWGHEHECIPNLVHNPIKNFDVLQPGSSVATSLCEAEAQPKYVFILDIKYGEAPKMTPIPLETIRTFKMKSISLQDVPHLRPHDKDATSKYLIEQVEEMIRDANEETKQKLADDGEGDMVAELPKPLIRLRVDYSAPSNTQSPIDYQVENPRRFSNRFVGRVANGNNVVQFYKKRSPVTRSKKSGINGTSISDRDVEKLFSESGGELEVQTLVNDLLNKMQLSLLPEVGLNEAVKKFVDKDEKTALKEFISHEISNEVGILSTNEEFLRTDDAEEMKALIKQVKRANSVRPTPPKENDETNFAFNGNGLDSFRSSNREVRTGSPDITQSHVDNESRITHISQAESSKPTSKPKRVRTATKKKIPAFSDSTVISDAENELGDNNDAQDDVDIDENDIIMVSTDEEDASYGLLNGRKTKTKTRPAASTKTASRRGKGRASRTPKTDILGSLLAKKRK

T1 sequence (P32829 whole entry, stated change not applied, one chain of several): as above
T2 sequence (P32829 whole entry, one chain of several): as the sequence (P32829 whole entry, stated change not applied, one chain of several) above
Chain of Mre11-Rad50-Xrs2 (MRX) (P32829 whole entry, chain 1 of 2): as the sequence (P32829 whole entry, stated change not applied, one chain of several) above
Chain of Mre11-Rad50-Xrs2 (MRX) (P33301 whole entry, chain 3 of 2): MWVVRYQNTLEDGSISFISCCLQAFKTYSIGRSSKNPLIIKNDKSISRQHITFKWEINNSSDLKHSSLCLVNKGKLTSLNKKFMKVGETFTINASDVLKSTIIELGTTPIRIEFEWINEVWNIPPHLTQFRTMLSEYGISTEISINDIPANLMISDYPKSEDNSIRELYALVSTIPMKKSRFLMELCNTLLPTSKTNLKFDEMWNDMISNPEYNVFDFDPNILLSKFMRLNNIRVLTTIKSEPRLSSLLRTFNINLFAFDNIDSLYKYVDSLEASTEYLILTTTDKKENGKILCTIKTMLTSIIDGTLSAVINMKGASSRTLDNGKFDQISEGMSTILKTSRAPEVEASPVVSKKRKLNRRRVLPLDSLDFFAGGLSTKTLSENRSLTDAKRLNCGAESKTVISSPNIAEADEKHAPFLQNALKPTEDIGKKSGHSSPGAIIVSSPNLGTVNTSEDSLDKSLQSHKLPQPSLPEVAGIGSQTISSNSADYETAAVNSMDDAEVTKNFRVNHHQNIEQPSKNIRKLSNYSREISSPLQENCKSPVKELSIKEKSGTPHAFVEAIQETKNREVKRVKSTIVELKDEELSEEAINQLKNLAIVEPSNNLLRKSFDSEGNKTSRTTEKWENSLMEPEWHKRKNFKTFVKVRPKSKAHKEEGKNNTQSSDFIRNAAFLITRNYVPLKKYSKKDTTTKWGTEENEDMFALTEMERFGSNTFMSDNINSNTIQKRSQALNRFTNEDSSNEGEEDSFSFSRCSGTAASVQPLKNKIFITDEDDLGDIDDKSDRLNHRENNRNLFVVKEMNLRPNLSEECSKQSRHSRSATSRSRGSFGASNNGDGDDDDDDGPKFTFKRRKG

B1: 106 bp mass photometry (dsDNA)
DNA 1: TTAGCTCCTACGCGGAACGAGACCTACCAATATACCTATATCAATGGCCTCCCACGCATAAGCCTCGGGAGCTCGACCATCTGGTCTCATCGGACACTTAGGACCA
DNA 2: TGGTCCTAAGTGTCCGATGAGACCAGATGGTCGAGCTCCCGAGGCTTATGCGTGGGAGGCCATTGATATAGGTATATTGGTAGGTCTCGTTCCGCGTAGGAGCTAA
binding result [1]: binds | binding result ([2]; blunt): binds | binding result [3]: binds

B2: 31 bp EMSA (X12-3SC) (dsDNA)
DNA 1: TTGCTAGGACATGCTGTCTAGAGACTATCGC
DNA 2: GCGATAGTCTCTAGACAGCATGTCCTAGCAA
Kd [4]: ~13.6 nM

B3: 20 bp EMSA (PC216_20 nt) (dsDNA)
DNA 1: CGTACTCCACCTCATGCATC
DNA 2: GATGCATGAGGTGGAGTACG
modifications: biotin position marked on a T of strand 2 in table
Kd [5]: ~22 nM

B4: 73 bp mass photometry (dsDNA)
DNA 1: GACCACCCTTTTTGATATAATATACCTATATCAATGGGCTCCCACGCAATTCGGCAGATACGTTCTGAGGGAA
DNA 2: GCCCATTGATATAGGTATATTATATCAAAAAGGGTGGTCTTCCCTCAGAACGTATCTGCCGAATTGCGTGGGA
binding result [6]: binds | binding result [7]: binds

B5: 70 bp EMSA (PC210/PC211) (dsDNA)
DNA 1: GTAAGTGCCGCGGTGCGGGTGCCAGGGCGTGCCCTTGGGCTCCCCGGGCGCGTACTCCACCTCATGCATC
DNA 2: GATGCATGAGGTGGAGTACGCGCCCGGGGAGCCCAAGGGCACGCCCTGGCACCCGCACCGCGGCACTTAC
modifications: biotin positions marked in table
Kd [8]: ~6.96 nM

B6: S. cerevisiae Rad50, wild type, untagged (co-expressed subunit) (natural protein, UniProt P12753 1-1312, looked up)
chain: MSAIYKLSIQGIRSFDSNDRETIEFGKPLTLIVGMNGSGKTTIIECLKYATTGDLPPNSKGGVFIHDPKITGEKDIRAQVKLAFTSANGLNMIVTRNIQLLMKKTTTTFKTLEGQLVAINNSGDRSTLSTRSLELDAQVPLYLGVPKAILEYVIFCHQEDSLWPLSEPSNLKKKFDEIFQAMKFTKALDNLKSIKKDMSVDIKLLKQSVEHLKLDKDRSKAMKLNIHQLQTKIDQYNEEVSEIESQLNEITEKSDKLFKSNQDFQKILSKVENLKNTKLSISDQVKRLSNSIDILDLSKPDLQNLLANFSKVLMDKNNQLRDLETDISSLKDRQSSLQSLSNSLIRRQGELEAGKETYEKNRNHLSSLKEAFQHKFQGLSNIENSDMAQVNHEMSQFKAFISQDLTDTIDQFAKDIQLKETNLSDLIKSITVDSQNLEYNKKDRSKLIHDSEELAEKLKSFKSLSTQDSLNHELENLKTYKEKLQSWESENIIPKLNQKIEEKNNEMIILENQIEKFQDRIMKTNQQADLYAKLGLIKKSINTKLDELQKITEKLQNDSRIRQVFPLTQEFQRADLEMDFQKLFINMQKNIAINNKKMHELDRRYTNALYNLNTIEKDLQDNQKSKEKVIQLLSENLPEDCTIDEYNDVLEETELSYKTALENLKMHQTTLEFNRKALEIAERDSCCYLCSRKFENESFKSKLLQELKTKTDANFEKTLKDTVQNEKEYLHSLRLLEKHIITLNSINEKIDNSQKCLEKAKEETKTSKSKLDELEVDSTKLKDEKELAESEIRPLIEKFTYLEKELKDLENSSKTISEELSIYNTSEDGIQTVDELRDQQRKMNDSLRELRKTISDLQMEKDEKVRENSRMINLIKEKELTVSEIESSLTQKQNIDDSIRSKRENINDIDSRVKELEARIISLKNKKDEAQSVLDKVKNERDIQVRNKQKTVADINRLIDRFQTIYNEVVDFEAKGFDELQTTIKELELNKAQMLELKEQLDLKSNEVNEEKRKLADSNNEEKNLKQNLELIELKSQLQHIESEISRLDVQNAEAERDKYQEESLRLRTRFEKLSSENAGKLGEMKQLQNQIDSLTHQLRTDYKDIEKNYHKEWVELQTRSFVTDDIDVYSKALDSAIMKYHGLKMQDINRIIDELWKRTYSGTDIDTIKIRSDEVSSTVKGKSYNYRVVMYKQDVELDMRGRCSAGQKVLASIIIRLALSETFGANCGVIALDEPTTNLDEENIESLAKSLHNIINMRRHQKNFQLIVITHDEKFLGHMNAAAFTDHFFKVKRDDRQKSQIEWVDINRVTY
notes: Rad50, S. cerevisiae, untagged; also called Rad50^wt; untagged Rad50; source: Sf9, co-expressed with Mre11-6xHis (and FLAG-Xrs2)
binding result [9]: binds

B7: S. cerevisiae Rad50^N121A/D124N, expressed and purified alone (natural protein, UniProt P12753 1-1312, looked up)
chain: B6 chain with N121A, D124N
notes: Rad50, S. cerevisiae; also called Rad50^ho
binding result [10]: binds

B8: S. cerevisiae Rad50, wild type, expressed and purified alone (natural protein, UniProt P12753 1-1312, looked up)
chain: B6 chain
notes: Rad50, S. cerevisiae; also called Rad50^wt
binding result [10]: binds

B9: 197 bp mass photometry (dsDNA)
DNA 1: GCTTCGTATGTTTCTCCTGCTTATCACCTTCTTGAAGGCTTCCCATTCATTCAGGAACCGCCTTCTGGTGATTTGCAAGAACGCGTACTTATTCGCCACCATGATTATGACCAGTGTTTCCAGTCCGTTCAGTTGTTGCAGTGGAATAGTCAGGTTAAATTTAATGTGACCGTTTATCGCAATCTGCCGACCACTCG
DNA 2: GCGAGTGGTCGGCAGATTGCGATAAACGGTCACATTAAATTTAACCTGACTATTCCACTGCAACAACTGAACGGACTGGAAACACTGGTCATAATCATGGTGGCGAATAAGTACGCGTTCTTGCAAATCACCAGAAGGCGGTTCCTGAATGAATGGGAAGCCTTCAAGAAGGTGATAAGCAGGAGAAACATACGAAG
binding result [11]: no binding | binding result ([2]; 1-nt 5' overhangs as printed): binds
